Measured values: the supplement of paper PMC9170038

What was measured:
MS2 coat protein [1] = experiment: apparent KD of MS2 coat protein, switch OFF state (with FMN for OFF switches, without FMN for ON switches); designed switch direction (-1 OFF switch, 1 ON switch): -1; higher = weaker reporter binding; conditions: FMN input: 0 or 200 uM; Eterna round: R93 (includes R88 designs)
Method in brief: (§1)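 With or without constant ligand, designed RNA switches in 100 mM Tris-HCl pH 7.5, 80 mM KCl and 4 mM MgCl2 were titrated with SNAP-549-labelled MS2 coat protein. Concentrations went up in twofold steps from 0.7 or 1.5 nM to 3 µM. The switches had been transcribed on-chip from Illumina sequencing clusters, and apparent KD is the per-design median of normalised cluster binding-curve fits.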

MS2 coat protein [2] = experiment: apparent KD of MS2 coat protein, switch ON state; designed switch direction (-1 OFF switch, 1 ON switch): -1; higher = weaker reporter binding; conditions: FMN input: 0 or 200 uM; Eterna round: R93 (includes R88 designs)
Method in brief: as §1

MS2 coat protein [3] = experiment: apparent KD of MS2 coat protein; designed switch direction (-1 OFF switch, 1 ON switch): 1; higher = weaker reporter binding
Method in brief: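 SNAP-549-labelled MS2 coat protein was titrated, doubling from 0.7 or 1.5 nM to 3 µM, over designed RNA switches transcribed on Illumina chips by stalled E. coli RNA polymerase. Runs were done without input, with 200 uM small-molecule ligand, or with an oligonucleotide input. Apparent KD is the per-design median over clusters of curve-fitted normalised fluorescence.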

[4] = input ligand: microRNA oligo, concentration not stated
[5] = Eterna round: R95, input ligand: FMN 200 uM
[6] = Eterna round: R95, input ligand: microRNA oligo, concentration not stated
[7] = Eterna round: R95, input ligand: none

Row | Sequence | apparent KD of MS2 coat protein (MS2 coat protein [1]) | apparent KD of MS2 coat protein (MS2 coat protein [2]) | also measured
1 | AAAAAACAUGAGGAUCACCCAUGUAAGGAUAUCUAAAAUAAAAGAAAAAUAAAGAAAAGGAGAAGGUAUAUGGA [JL wbt mod 24] | 37.3 nM | 27.1 nM | 
2 | AAAAAACAUGAGGAUCACCCAUGUAAGGAUAUGCUAAAAAACGCAAAAAAAGCGAAUAGCAGAAGGUACAAAAG [Mat - Exclusion 1 - Eli mod - D81] | 70.5 nM | 36.4 nM | 
3 | AAAAAACAUGAGGAUCACCCAUGUAAGGAUAUGCUGAAAAACACGGAAAAAACGUGCAGCAGAAGGUACAAAGA [Mat - Exclusion 1 - Eli mod - D96] | 39.9 nM | 18.3 nM | 
4 | AAAAAACAUGAGGAUCACCCAUGUAAGGAUAUGUAAAACCCAUAUAAAAAGGGAAAAAACAGAAGGUGCAAAAA [wbt round 1 mod 6] | 30.4 nM | 35.1 nM | 
5 | AAAAAACAUGAGGAUCACCCAUGUAAGGAUAUGUAAAAUAAAAGAAAAAUAAAGAAAAGCAGAAGGUACAUGAA [JL wbt mod 14] | 60.5 nM | 37 nM | 
6 | AAAAAACAUGAGGAUCACCCAUGUCAGGAUAUCCGGUUCUUAAAAAAAAAGAGGCGUUGGAGAAGGGACAUUCC [Chica Displaced 12 - Jieux - Exclusion 1] | 41.7 nM | 26.7 nM | 
7 | AAAAAACAUGAGGAUCACCCAUGUCAGGAUAUCGUAAAAAAAAAAAAAAAAAAAAAUGCGAGAAGGGACUGGAA [exclusion1-cac2] | 94.5 nM | 86.9 nM | 
8 | AAAAAACAUGAGGAUCACCCAUGUCAGGAUAUCUGUAUUCAAUCCUCGGAUUGAAUACAGAGAAGGGACAUAAA [Ex1: 605] | 126 nM | 46.2 nM | 
9 | AAAAAACAUGAGGAUCACCCAUGUCAGGAUAUCUGUAUUCAAUCCUCGGAUUGAAUACAGAGAAGGGACAUGGG [Ex1: 601] | 18 nM | 22.6 nM | 
10 | AAAAAACAUGAGGAUCACCCAUGUCAGGAUAUGCGAAGCAAAAAAAAAAAAAAGCGAAGUAGAAGGGACUAAAA [Exclusion1 Malc#6] | 40.1 nM | 24.4 nM | 
11 | AAAAAACAUGAGGAUCACCCAUGUCAGGAUAUGCUCAACAAUAUUCCAAAAAAGAACGGUAGAAGGGACAGGAA [Bilbo Confounded 25 - Jieux - Exclusion 1] | 22.3 nM | 30.4 nM | 
12 | AAAAAACAUGAGGAUCACCCAUGUCAGGAUAUGCUCAGCAAUAUUCCAAUAAAGAACGGUAGAAGGGACAGGAA [Bilbo Confounded 24 - Jieux - Exclusion 1] | 26.6 nM | 24.9 nM | 
13 | AAAAAACAUGAGGAUCACCCAUGUGAGGAUAUCCAGAAGGGAAUAAAAUAACUCGAAAGGAGAAGGCGCAAAAA [Ex 1 May 34] | 26.2 nM | 31.8 nM | 
14 | AAAAAACAUGAGGAUCACCCAUGUGAGGAUAUCCUGAAGGGAAUAAAAUAACUCGAAAGGAGAAGGCGCAAAAA [Ex 1 May 32] | 33 nM | 35.2 nM | 
15 | AAAAAACAUGAGGAUCACCCAUGUGAGGAUAUGAAAAUACUAAGACAACUGUAAUCAAUCAGAAGGCACAACAA [JR_Exc--1_Sub1208] | 19.6 nM | 18.8 nM | 
16 | AAAAAACAUGAGGAUCACCCAUGUGAGGAUAUGCGAAAAUAAAAUAAAAUAAUAAAAAGCAGAAGGCACAAAAA [58%, Sh'dynasty, 1] | 89.3 nM | 67.7 nM | 
17 | AAAAACCGAGGAUAUACAUGAGGAUCACCCAUGUAAAAAAAAAAAAAGGGAAAAAAAAGUAGAAGGCGGAAAAA [Djehuti Sekhemresementawy] | 34.8 nM | 26.2 nM | 
18 | AAAAAGAGAGGAUAUACAUGAGGAUCACCCAUGUGAAAAAAAAAAAAAGGGAAAAGAUGUAGAAGGCUCAAAAA [65%, Moding Exclusion3-cac2, 16] | 32.1 nM | 30.4 nM | 
19 | AAAAAGCGAGGAUAUACAUAGCUAAGACAUGUAAGCGAAAAACAUGAGGAUCACCCAUGUAGAAGGCGCAAAAA [Exclusion2-02] | 16.5 nM | 16.8 nM | 

Row | Sequence | apparent KD of MS2 coat protein (MS2 coat protein [1]) | apparent KD of MS2 coat protein (MS2 coat protein [2]) | also measured
20 | AAAAAGCGAGGAUAUACUAAAAAACCUCAAAAAAAAAAAAAACAUGAGGAUCACCCAUGUAGAAGGCGCAAAAA [JR_Exc002_Sub001] | 113 nM | 86.1 nM | 
21 | AAAAAGCGAGGAUAUGCAAGAAAAAAAAAAAAAAAAAAGGGACAUGAGGAUCACCCAUGUAGAAGGCGCAAAAA [Diamond 65] | 38 nM | 54.9 nM | 
22 | AAAAAGCUAGGAUAUACAUGAGGAUCACCCAUGUAAAAAAAAAAAAAGGGAAAAAAAAGUAGAAGGAGCAAAAA [Merankhre Mentuhotep VI] | 26 nM | 18.4 nM | 
23 | AAAAAGGCAGGAUAUACAUGAGGAUCACCCAUGUAAAAAAAAAAAAAAGGGAAAAAAAGUAGAAGGGCCAAAAA [Along] | 53.4 nM | 31.1 nM | 
24 | AAAAAGGCAGGAUAUACAUGAGGAUCACCCAUGUAAAAAAAAACAAGAGAAAAAAAAUGUAGAAGGGCCAAAAA [Ex3 Malc#3] | 26 nM | 26.8 nM | 
25 | AAAAAGGCAGGAUAUGCAUACACACAAAAAAAAAAACUGGGACAUGAGGAUCACCCAUGUAGAAGGGCCAAAAA [Dora Explored 8 - Jieux - Exclusion 2] | 54 nM | 151 nM | 
26 | UUAUCUCAGACAUGAGGAUCACCCAUGUUUUUUUGUCUUUGACAGGAUAUAGUUGUUUCGUUUUACUAGAAGGGUCAUUUUAUU [JR_SSNG3_Sub024] (Eterna round: R96, puzzle: Same State NG 3) |  |  | apparent KD of MS2 coat protein (MS2 coat protein [3]; input ligand: FMN 200 uM): 20.3 nM; apparent KD of MS2 coat protein (MS2 coat protein [3]; [4]): 20.8 nM; apparent KD of MS2 coat protein (MS2 coat protein [3]; input ligand: none): 29.8 nM
27 | UUAUCUCUUACAUGAGGAUCACCCAUGUUUUUAUGUCUUAGACAGGAUAUAGUAGUCUCGUUUUACUAGAAGGGUCUUUUUAUU [JR_SSNG3_Sub019] (Eterna round: R96, puzzle: Same State NG 3) |  |  | apparent KD of MS2 coat protein (MS2 coat protein [3]; input ligand: FMN 200 uM): 28.9 nM; apparent KD of MS2 coat protein (MS2 coat protein [3]; [4]): 39.8 nM; apparent KD of MS2 coat protein (MS2 coat protein [3]; input ligand: none): 51.4 nM
28 | UUAUUAUUUACAUGAGGAUCACCCAUGUUUUUAUGUCAGAGAUAGGAUAUAGUAGUCUCGUUUUACUAGAAGGAUCUUUUUAUU [JR_SSNG3_Sub084] (Eterna round: R96, puzzle: Same State NG 3) |  |  | apparent KD of MS2 coat protein (MS2 coat protein [3]; input ligand: FMN 200 uM): 13.4 nM; apparent KD of MS2 coat protein (MS2 coat protein [3]; [4]): 15.8 nM; apparent KD of MS2 coat protein (MS2 coat protein [3]; input ligand: none): 19.9 nM
29 | UUAUUAUUUACAUGAGGAUCACCCAUGUUUUUAUGUCAGAGAUAGGAUAUAGUUUUCUCGUUUUUCUAGAAGGAUCUUUUUAUU [JR_SSNG3_Sub085] (Eterna round: R96, puzzle: Same State NG 3) |  |  | apparent KD of MS2 coat protein (MS2 coat protein [3]; input ligand: FMN 200 uM): 18.6 nM; apparent KD of MS2 coat protein (MS2 coat protein [3]; [4]): 17 nM; apparent KD of MS2 coat protein (MS2 coat protein [3]; input ligand: none): 22.8 nM
30 | UUCCUACAUGAGGAUCACCCAUGUGACGCCUCGAUAGGAUAUGCGUGUGCCUUGGCGCAUGCAGAAGGGUUGUAGC [JL Aveso mod 9] (puzzle: Same State 1) |  |  | apparent KD of MS2 coat protein (MS2 coat protein [3]; [5]): 39.2 nM; apparent KD of MS2 coat protein (MS2 coat protein [3]; [6]): 34.8 nM; apparent KD of MS2 coat protein (MS2 coat protein [3]; [7]): 37.5 nM
31 | UUCUCACAUGAGGAUCACCCAUGUGAGCCUCUGUGAGGAUAUCCGACAUAAUUAAGUGAAGGAGAAGGUACACGAG [Malean] (puzzle: Same State 1) |  |  | apparent KD of MS2 coat protein (MS2 coat protein [3]; [5]): 24.8 nM; apparent KD of MS2 coat protein (MS2 coat protein [3]; [6]): 30.2 nM; apparent KD of MS2 coat protein (MS2 coat protein [3]; [7]): 19.5 nM
32 | UUCUUACAUGAGGAUCACCCAUGUGUUGUCGUGGGAGGAUAUCCUUGUUCGGUGGCGUUGGGAGAAGGCCUAUGUU [× ×•×ª×• ×ž×“×™× ×” × ×—×ª-20] (puzzle: Same State 1) |  |  | apparent KD of MS2 coat protein (MS2 coat protein [3]; [6]): 40.4 nM
33 | UUGCUCGUGUGAGGAUAUGCCGCCGUUUCGGCUGCAGAAGGUACUAUAAUACAUGAGGAUCACCCAUGUCUCUGUUGUUUCGUG [salish99_SSNG1_r04_932] (Eterna round: R96, puzzle: Same State NG 1) |  |  | apparent KD of MS2 coat protein (MS2 coat protein [3]; [4]): 23.7 nM
34 | UUGGUGUAGAUACAGGAUAUGUUGAUUGUAACAUGAGGAUCACCCAUGUAUCUAUGAGAUUAAAUGCAGAAGGGUGCACAUCACU [salish99_ss2_r3_090] (puzzle: Same State 2) |  |  | apparent KD of MS2 coat protein (MS2 coat protein [3]; [5]): 209 nM; apparent KD of MS2 coat protein (MS2 coat protein [3]; [6]): 92.9 nM; apparent KD of MS2 coat protein (MS2 coat protein [3]; [7]): 276 nM
35 | UUGUAUCGAAAAGGAUAUCAUGGGCAACGGUACUGAGAAGGUUUCGAGCUCGAACGAGCAACAUGAGGAUCACCCAUGUCCGAG [Eternabot solution 50] (Eterna round: R96, puzzle: Same State NG 1) |  |  | apparent KD of MS2 coat protein (MS2 coat protein [3]; input ligand: FMN 200 uM): 337 nM; apparent KD of MS2 coat protein (MS2 coat protein [3]; [4]): 280 nM; apparent KD of MS2 coat protein (MS2 coat protein [3]; input ligand: none): 212 nM
36 | UUGUUUCGUCAUUAACAUGAGGAUCACCCAUGUCUUGGCCCAGAGGAUAUGCAUGUUUGAUUGUAGCAGAAGGCUGAUUGUUGU [JR_SSNG3_Sub031] (Eterna round: R96, puzzle: Same State NG 3) |  |  | apparent KD of MS2 coat protein (MS2 coat protein [3]; input ligand: FMN 200 uM): 25.9 nM; apparent KD of MS2 coat protein (MS2 coat protein [3]; [4]): 34.9 nM; apparent KD of MS2 coat protein (MS2 coat protein [3]; input ligand: none): 42.5 nM
37 | UUUAGUUGCGGGCAGGAUAUGUAUUAAAAUACAUGAGGAUCACCCAUGUGAGGUCAUAAAGACCUACAGAAGGGCCAAUCGCGAC [Laonerce - 16] (puzzle: Same State 2) |  |  | apparent KD of MS2 coat protein (MS2 coat protein [3]; [5]): 16.5 nM; apparent KD of MS2 coat protein (MS2 coat protein [3]; [6]): 64.8 nM; apparent KD of MS2 coat protein (MS2 coat protein [3]; [7]): 66.2 nM
